From patent US8722856B2, “Anti-MUC1 antibody” (National University Corporation Hokkaido University, priority 2008, dated 2014) come the findings set out here.

The target in test [1] is T1, Biotin-Tn(DT*R)-100 (Compound No. 21) (Homo sapiens, UniProt P15941).
T1 construct: made in house; host or cells: chemical solid-phase synthesis
Briefly: Affinity of antibody, Biacore T100, sensor chip SA. Format: binding. Particulars: Biotin-Tn(DT*R)-100 solid-phased. The text has this:
Biotin-Tn(DT*R)-100 (Compound No. 21) was solid-phased on a sensor chip SA (manufactured by GE Healthcare), and a dissociation constant of each of the following MUC1 antibody, 1B2, PankoMab (manufactured by GLYCOPOPE) currently at a pre-clinical stage, VU-2G7 (manufactured by MONOSAN) which is an antibody obtained by glycopeptide immunization, O.N.272 (manufactured by SantaCruz), C595 (manufactured by Acris), B416 (manufactured by GeneTex), and VU-3C6 (manufactured by Exalpha Biologicals) was analyzed using Biacore T100, and the result was as shown in the following Table 3.

The subject of test [2] is human mammary gland epithelial cell 184A1. In words: Binding of antibody to cell with FACS. Type of test: cell-based. Here is the method:
Whether the MUC1 protein expressed on a surface of a cancer cell membrane and the 1B2 antibody bound thereto was investigated by FACS. A human breast cancer cell strain T-47D (ATCC, HTB-133) and a human mammary gland epithelial cell 184A1 (ATCC, CRL-8798) which had been trypsinized with Trypsin (manufactured by Invitrogen) were washed once with a FACS buffer (PBS containing 5% FCS, 0.05% sodium azide), and suspended in 100 μl of a FACS buffer containing 10 μg/ml 1B2 antibody and the reaction was allowed to proceed at room temperature for 2 hours. The resultant reaction product was washed with a FACS buffer two times, and suspended in 200 μl of FITC-Goat Anti-Mouse IgG (manufactured by ZYMED), and the reaction was allowed to proceed at room temperature for 1 hour. After washing with a FACS buffer two times, analysis was performed by FACSAria (manufactured by BD). As a result, in T-47D, the 1B2 antibody greatly shifted the fluorescent signal of FACS (about 300-fold) as compared with a control mouse IgG2a antibody (manufactured by SIGMA-ALDRICH), while in 184A, fluorescent shift by 1B2 was scarcely seen (about 2-fold).

In test [3] the test system is normal tissue around a breast cancer. In words: Immunological tissue staining. Also noted: species or system human. The note with it: formalin-fixed, paraffin-embedded normal tissue around the breast cancer. The text has this:
(§1) Immunological tissue staining of the 1B2 antibody to a piece of a human breast cancer tissue and a normal tissue around a breast cancer (BioCahin) which had been formalin-fixed and paraffin-embedded was implemented using the Vectastain elite ABC kit (manufactured by Vector Laboratories) and DAB (manufactured by Roche) according to the attached manual.

Test [4] has as its system Biotin-Tn(DT*R)-20, -40, -60, -80, -100 (Compound Nos. 17-21). In words: Tandem repeat dependency ELISA on Streptavidin solid-phased plate. Format: binding. Here is the method:
To each well of a 384-well microtiter plate (manufactured by Nunc) 35 μl of a Tris buffer (50 mM Tris-HCl, pH 7.5) containing 0.35 μg of Streptavidin (manufactured by PIERCE) was added to perform immobilization at 4° C. for 16 hours. After these wells were washed with 90 μl of a washing solution (physiological saline containing 0.01% Tween 20) once, 200 μl of Block Ace (manufactured by Dainippon Sumitomo Pharma Co., Ltd.) was added, and this was allowed to stand at room temperature for 2 hours, to perform blocking (a Streptavidin solid-phased plate). […] Then, after each well was washed with 90 μl of a washing solution three times, 15 μl of TMB+-Substrate-Chromogen (manufactured by DAKO) was added to develop a color at room temperature for 30 minutes, 15 μl of 0.05 M sulfuric acid was added to stop the reaction, and absorbance at 450 nm was measured. […] Therefore, the antibody of the present invention can be said to have an affinity for Tn-100-mer biotin of lower than 1.0×10^−9 (M), and can be said to have the ability to bind to a Tn20-mer tandem structure fragment. More particularly, it can also be said that the antibody of the present invention has a ratio (A100/A20) of absorbance at 450 nm in the case of use of Tn20-mer biotin (A20) and absorbance at 450 nm in the case of use of Tn100-mer biotin (A100), of 2 or lower.

Test [5] relates to human breast cancer tissue. Briefly: Immunological tissue staining. The note with it: formalin-fixed, paraffin-embedded breast cancer tissue.
From the text: as §1

The target in test [6] is T2, Biotin-2,3-ST(DT*R)-20 (Compound No. 16) (Homo sapiens, UniProt P15941).
T2 construct: Synthesis of MUC1 Tn20-mer Glycopeptide; made in house; host or cells: chemical solid-phase synthesis with enzymatic sialylation
Briefly: Hybridoma screening ELISA (selection of MUC1 antibody). Type of test: binding. The note with it: hybridoma culture supernatant. As to the method:
Ten days after cell fusion, screening of a specific antibody-producing cell was performed. ELISA was used in screening is as follows. To each well of a 384-well microtiter plate (manufactured by Nunc) 35 μl of a Tris buffer (50 mM Tris-HCl, pH 7.5) containing 0.35 μg of an anti-mouse IgG antibody (manufactured by Shibayagi Co., Ltd.) was added to immobilize the antibody at 4° C. for 16 hours. After these wells were washed with 90 μl of a washing solution (physiological saline containing 0.01% Tween 20) once, 200 μl of BLOCK ACE (manufactured by Dainippon Sumitomo Pharma Co., Ltd.) was added, and this was allowed to stand at room temperature for 2 hours for blocking (an anti-mouse IgG antibody solid-phased plate). […] Then, after each well was washed with 90 μl of a washing solution three times, 25 μl of TMB+-Substrate-Chromogen (manufactured by DAKO) was added to develop a color at room temperature for 30 minutes, 25 μl of 0.05 M sulfuric acid was added to stop the reaction, and absorbance was measured at 450 nm. […] Using a mouse monoclonal antibody isotyping ELISA kit (manufactured by BD Bioscience), a subclass of the antibody was determined and, as a result, an isotype of 1B2 was IgG2a.

T1 sequence (P15941 136-235): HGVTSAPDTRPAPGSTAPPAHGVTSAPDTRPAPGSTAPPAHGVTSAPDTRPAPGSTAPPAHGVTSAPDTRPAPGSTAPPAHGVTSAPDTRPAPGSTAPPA
T2 sequence (P15941 136-155): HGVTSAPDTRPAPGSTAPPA

B1: 1B2: mouse monoclonal anti-MUC1 antibody, isotype IgG2a, clone from immunization with 2,3-ST(DT*R)-20 conjugated to BSA (antibody, V domains shown)
VH: MEWIWIFLFILSGTAGVQSQVQLQQSGAELARPGASVKLSCKASGYTFTNYGLSWVKQRTGQGLEWIGENHPGSGIIYHNEKFRGKATLTADKSSSTAYVQLSSLTSEDSAVYFCARSSGTRGFAYWGQGTLVTVSA
VL: MKLPVRLLVLMFWIPASSSDVLMTQTPLSLPVSLGDQASISCRSSQSIVHSNGNTYLEWYLQKPGQSPKLLIYKVSNRFSGVPDRFSGSGSGTDFTLKISRVEAEDLGVYYCFQGSHGPWTFGGGTKLEIKRA
modifications: Antibody 1B2 VH sequence; Antibody 1B2 VL sequence
In test [1], B1 gave a Kd1 of 0.00015 s⁻¹ and a ka1 of 410000 M⁻¹ s⁻¹. In addition, the Kd in test [1] (read-out: dissociation constant KD) worked out at 0.37 nM. The “reaction with mammary gland epithelial cell (FACS)” value in test [2] (184A1) was “hardly reacts”. Further, the “shift of fluorescent signal of FACS as compared with control mouse IgG2a antibody” value in test [2] (184A1, 10 μg/ml antibody) is “about 2 fold”. Further, the stained image result in test [3] is “scarcely recognized”. Moreover, in test [4] (Biotin-Tn(DT*R)-40, -60, -80, -100), the “reactivity by peptide chain length” value is on record as “approximately the same reactivity”. The “dependency on the length of the tandem repeat” value in test [4] (absorbance at 450 nm, 20-mer to 100-mer) is “low dependency on a length of the tandem repeat”. Further, the stained image entry in test [5] is “recognized”. In addition, the “affinity for 2,3-ST(DT*R)-20 in screening” value in test [6] is “strong affinity”.
